Reference: patent US7273727B2, “Fusion proteins for prodrug activation” (Behrinwerke Aktiengesellschaft, priority 1992, dated 2007)

B1: sFv-huβGluc: sFv 431/26 human β-glucuronidase fusion protein expressed in yeast (Example 9), highly mannosylated (protein)
chain: QVQLQESGPGLVRPSQTLSLTCTVSGFTISSGYSWHWVRQPPGRGLEWIGYIQYSGITNYNPSLKSRVTMLVDTSKNQFSLRLSSVTAADTAVYYCAREDYDYHWYFDVWGQGTTVTVSSGGGGSGGGGSGGGGSDIQLTQSPSSLSASVGDRVTITCSTSSSVSYMHWYQQKPGKAPKLLIYSTSNLASGVPSRFSGSGSGTDFTFTISSLQPEDIATYYCHQWSSYPTFGQGTKLEIKELKTPLGDTTHTCPRCPAAAAVQGGMLYPQESPSRECKELDGLWSFRADFSDNRRRGFEEQWYRRPLWESGPTVDMPVPSSFNDISQDWRLRHFVGWVWYEREVILPERWTQDLRTRVVLRIGSAHSYAIVWVNGVDTLEHEGGYLPFEADISNLVQVGPLPSRLRITIAINNTLTPTTLPPGTIQYLTDTSKYPKGYFVQNTYFDFFNYAGLQRSVLLYTTPTTYIDDITVTTSVEQDSGLVNYQISVKGSNLFKLEVRLLDAENKVVANGTGTQGQLKVPGVSLWWPYLMHERPAYLYSLEVQLTAQTSLGPVSDFYTLPVGIRTVAVTKSQFLINGKPFYFHGVNKHEDADIRGKGFDWPLLVKDFNLLRWLGANAFRTSHYPYAEEVMQMCDRYGIVVIDECPGVGLALPQFFNNVSLHHHMQVMEEVVRRDKNHPAVVMWSVANEPASHLESAGYYLKMVIAHTKSLDPSRPVTFVSNSNYAADKGAPYVDVICLNSYYSWYHDYGHLELIQLQLATQFENWYKKYQKPIIQSEYGAETIAGFHQDPPLMFTEEYQKSLLEQYHLGLDQKRRKYVVGELIWNFADFMTEQSPTRVLGNKKGIFTRQRQPKSAAFLLRERYWKIANETRYPHSVAKSQCLENSPFT
B2: sFv-huβ-Gluc: humanized sFv fragment against CEA (from MAb BW 431/26) linked via hinge to human β-glucuronidase; SEQ ID NO:2 (protein)
chain: MGWSCIILFLVATATGVHSQVQLQESGPGLVRPSQTLSLTCTVSGFTISSGYSWHWVRQPPGRGLEWIGYIQYSGITNYNPSLKSRVTMLVDTSKNQFSLRLSSVTAADTAVYYCAREDYDYHWYFDVWGQGTTVTVSSGGGGSGGGGSGGGGSDIQLTQSPSSLSASVGDRVTITCSTSSSVSYMHWYQQKPGKAPKLLIYSTSNLASGVPSRFSGSGSGTDFTFTISSLQPEDIATYYCHQWSSYPTFGQGTKLEIKELKTPLGDTTHTCPRCPAAAAVQGGMLYPQESPSRECKELDGLWSFRADFSDNRRRGFEEQWYRRPLWESGPTVDMPVPSSFNDISQDWRLRHFVGWVWYEREVILPERWTQDLRTRVVLRIGSAHSYAIVWVNGVDTLEHEGGYLPFEADISNLVQVGPLPSRLRITIAINNTLTPTTLPPGTIQYLTDTSKYPKGYFVQNTYFDFFNYAGLQRSVLLYTTPTTYIDDITVTTSVEQDSGLVNYQISVKGSNLFKLEVRLLDAENKVVANGTGTQGQLKVPGVSLWWPYLMHERPAYLYSLEVQLTAQTSLGPVSDFYTLPVGIRTVAVTKSQFLINGKPFYFHGVNKHEDADIRGKGFDWPLLVKDFNLLRWLGANAFRTSHYPYAEEVMQMCDRYGIVVIDECPGVGLALPQFFNNVSLHHHMQVMEEVVRRDKNHPAVVMWSVANEPASHLESAGYYLKMVIAHTKSLDPSRPVTFVSNSNYAADKGAPYVDVICLNSYYSWYHDYGHLELIQLQLATQFENWYKKYQKPIIQSEYGAETIAGFHQDPPLMFTEEYQKSLLEQYHLGLDQKRRKYVVGELIWNFADFMTEQSPTRVLGNKKGIFTRQRQPKSAAFLLRERYWKIANETRYPHSVAKSQCLENSPFT

Legend:
[1] = Analysis of the monosaccharide components in the carbohydrate content (HPAE-PAD after hydrolysis); assay type: physicochemical
Experimental: Neuraminic acid was determined by the method of Hermentin and Seidat (1991) GBF Monographs Volume 15, pp. 185-188 (after hydrolysis for 30 min in the presence of 0.1 N sulfuric acid at 80° C. and subsequent neutralization with 0.4 N sodium hydroxide solution) by high-pH anion exchange chomatography with pulsed amerometric detection (HPAE-PAD).
The monosaccaride components were determined (after hydrolysis for 4 h in the presence of 2 N trifluoracetic acid at 100° C. and evaporation to dryness in a SpeedVac) likewise by HPAE-PAD in a […] of the method described by Hardy et al. (1988) Analytical Biochemistry 170, pp. 54-62.

[2] = Injection of prodrug after injection of fusion protein, side effects; assay type: in vivo; conditions: prodrug injected 3 days after injection of the fusion protein; data not shown
Source text: This rapid internalization mechanism, which is mainly mediated by galactose and mannose, is closely involved in the advantageous phannacokinetics of the fusion protein according to the invention. These advantageous pharmacokinetics of the fusion protein to which galactose and, in particular, mannose are attached makes it possible for a hydrophilic prodrug which undergoes extracellular distribution to be administered i.v. at a relatively early time without eliciting non-specific prodrug activation. In this case an elimination step as described by Sharma et al. (Brit. J. Cancer, 61, 659, 1990) is unnecessary.

[3] = test system: PEM (polymorphic epithelial mucin); test: Specificity enzyme activity test, control plates coated with PEM; assay type: biochemical
Source text: (§1) The ability of the sFv-huβ-Gluc fusion protein to bind specifically to the CEA epitope defined by 431/26 and simultaneously to exert the enzymatic activity of human β-glucuronidase was shown in a specificity enzyme activity test (EP-A2-0 501 215). The test determines the liberation of 4-methylumbelliferone from 4-methylumbelliferyl β-glucuronide by the β-glucuronidase portion of the fusion protein after the fusion protein has been bound via the sFv portion to an antigen. The measured fluorescence values are reported as relative fluorescence units (FU).

CEA = test: Specificity enzyme activity test, plates coated with CEA; assay type: biochemical
Source text: as §1

[4] = fusion protein from Saccharomyces cerevisiae
[5] = fusion protein from BHK cells, after hydrolysis
[6] = fusion protein expressed by BHK cells

Molecule	Glucosamine [1, 4] [mol/mol]	Glucose [1, 4] [mol/mol]	Mannose [1, 4] [mol/mol]	side effects after injection of a suitable prodrug [2]	Fucose, molar ratio [1, 5]	Galactosamine, molar ratio [1, 5]	Galactose, molar ratio [1, 5]	Glucose, molar ratio [1, 5]	Mannose, molar ratio [1, 5]	N-Acetyl glucosamine, molar ratio [1, 5]	N-Acetyl-neuraminic acid, molar ratio [1, 5]	liberation of methylumbelliferone from 4-methylumbelliferyl β-glucuronide [3]	antigen specificity (CEA; [6])	β-glucuronidase activity (CEA; [6])	liberation of methylumbelliferone from 4-methylumbelliferyl β-glucuronide (CEA; plates coated with CEA)
B1	6	12	150	–	–	–	–	–	–	–	–	–	–	–	–
B2	–	–	–	without producing significant side effects	4 mol of carbohydrate/mol of sFv-huβ-Gluc	2 mol of carbohydrate/mol of sFv-huβ-Gluc	8 mol of carbohydrate/mol of sFv-huβ-Gluc	1 mol of carbohydrate/mol of sFv-huβ-Gluc	43 mol of carbohydrate/mol of sFv-huβ-Gluc	30 mol of carbohydrate/mol of sFv-huβ-Gluc	4 mol of carbohydrate/mol of sFv-huβ-Gluc	does not liberate any methylumbelliferone	specific for CEA	full β-glucuronidase activity	significant liberation of methyl-umbelliferone
